We go through 1 molecule from PMC10889554, “An Unusual Two-Domain Thyropin from Tick Saliva: NMR Solution Structure and Highly Selective Inhibition of Cysteine Cathepsins Modulated by Glycosaminoglycans” (International Journal of Molecular Sciences, 2024).

Holding throughout (assay): enzyme inhibition kinetics (fluorogenic peptide substrate activity assay); inhibitor preincubated with protease 15 min, 37 °C; IC50 from residual velocities, Ki by the Cheng-Prusoff equation; 50 mM sodium acetate pH 5.5, 0.1% polyethylene glycol 1500, 2.5 mM dithiothreitol (cathepsins L, K, V, B, F, C and papain; 50 mM NaCl for cathepsin C)
Common to all, as to settings: both partners purified

The target of one assay is T1, Carica papaya papain (Carica papaya, UniProt P00784 134-345).
T1 construct: source: bought: Merck
T1 sequence (looked up): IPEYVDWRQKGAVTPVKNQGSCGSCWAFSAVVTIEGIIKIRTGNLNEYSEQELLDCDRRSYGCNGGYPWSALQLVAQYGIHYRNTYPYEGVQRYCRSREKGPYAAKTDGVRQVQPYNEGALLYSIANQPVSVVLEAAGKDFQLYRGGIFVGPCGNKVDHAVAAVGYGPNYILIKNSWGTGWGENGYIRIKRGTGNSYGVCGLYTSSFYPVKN

In another assay the target is T2, human cathepsin F (human, UniProt Q9UBX1 271-484).
T2 construct: source: bought: Enzo Life Sciences
T2 sequence (looked up): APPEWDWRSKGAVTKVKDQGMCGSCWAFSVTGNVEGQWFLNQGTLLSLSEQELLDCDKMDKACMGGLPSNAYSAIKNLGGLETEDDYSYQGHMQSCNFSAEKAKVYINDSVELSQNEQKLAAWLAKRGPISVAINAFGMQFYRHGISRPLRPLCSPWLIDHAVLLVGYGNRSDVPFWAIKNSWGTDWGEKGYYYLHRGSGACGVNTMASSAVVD

Another assay deals with T3, human cathepsin V (human, UniProt O60911 114-334).
T3 construct: source: Pichia pastoris expression system, as described previously [12,56,57]

In the next assay the target is T4, human cathepsin L (human).
T4 construct: source: Pichia pastoris expression system, as described previously [12,56,57]

Another assay deals with T5, human cathepsin K (human, UniProt P43235 115-329).
T5 construct: source: Pichia pastoris expression system, as described previously [12,56,57]
T5 sequence (looked up): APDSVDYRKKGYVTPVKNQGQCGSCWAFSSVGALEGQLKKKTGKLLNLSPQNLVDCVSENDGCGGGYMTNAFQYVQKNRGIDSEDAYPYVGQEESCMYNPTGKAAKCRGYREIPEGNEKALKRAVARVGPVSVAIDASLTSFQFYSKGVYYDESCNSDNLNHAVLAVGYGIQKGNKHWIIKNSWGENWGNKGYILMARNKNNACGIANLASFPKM

T3 sequence (O60911 114-334): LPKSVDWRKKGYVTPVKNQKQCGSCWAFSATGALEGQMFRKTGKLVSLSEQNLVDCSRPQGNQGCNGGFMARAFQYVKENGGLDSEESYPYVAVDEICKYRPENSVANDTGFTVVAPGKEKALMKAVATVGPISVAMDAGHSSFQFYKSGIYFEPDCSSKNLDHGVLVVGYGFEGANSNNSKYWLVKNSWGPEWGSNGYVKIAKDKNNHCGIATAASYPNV

B1: IrThy-Nd, recombinant N-terminal Tg1 domain of IrThy (domain or fragment)
chain: SNAASVPTRVANHGASRPLSDCEQRKQREERNTGPLAIHIECNPDGSYKPMQCFGNPDQPRRMCACYDQEYDQIKAPSRQLKSCK
On to B1, for which the Ki stood at 153 nM in the assay with Carica papaya papain; 207 nM in the assay with human cathepsin F; 27.2 nM in the assay with human cathepsin V; 179 nM with human cathepsin L; 43.7 nM with human cathepsin K.

A word on the Ki: it is the dissociation constant of the complex between target and ligand, obtained from inhibition or displacement. A lower Ki goes with higher affinity.
